Like-named read-outs stand apart in the source and are kept apart here.
Legend:
[1] = target: T1, SARS-CoV-2 S1 (aa16-685) (Wuhan) (SARS-CoV-2 Wuhan, UniProt P0DTC2 16-685); test: ELISA
T1 construct: NRC; FLAG, 6xHis tags

[2] = target: T2, SARS-CoV-2 S1-NTD (aa16-305) (SARS-CoV-2 Wuhan, UniProt P0DTC2 16-305); test: ELISA
[3] = target: T3, SARS-CoV-2 S on CHO-S cells (SARS-CoV-2, UniProt P0DTC2 14-1273); test: flow cytometry, CHO-S cells
T3 construct: whole, on cells

[4] = target: T4, SARS-CoV-2 spike trimer S (Wuhan, SmT1) (SARS-CoV-2 Wuhan); test: ELISA, coated antigen, apparent EC50
T4 construct: extracellular domain

[5] = target: T1, SARS-CoV-2 S1 (aa16-685) (Wuhan); test: ELISA, coated antigen, apparent EC50
[6] = target: T2, SARS-CoV-2 S1-NTD (aa16-305); test: ELISA, coated antigen, apparent EC50
SARS-CoV spike (S) [7] = target: T5, SARS-CoV spike (S) (SARS-CoV, UniProt P59594 14-1195); test: ELISA
[8] = target: T6, SARS-CoV-2 S2 (aa686-1208) (Wuhan) (SARS-CoV-2 Wuhan, UniProt P0DTC2 686-1208); test: ELISA
T6 construct: NRC; FLAG, 6xHis tags

SARS-CoV spike (S) [9] = target: T5, SARS-CoV spike (S); test: ELISA; remark: listed apart in the source

| Binder | binding result [1] | binding result [2] | Bmax [3] | EC50 [3] [pM] | EC50 [4] [pM] | EC50 [5] [pM] | EC50 [6] [pM] | binding result (SARS-CoV spike (S) [7]) | binding result [8] | binding result (SARS-CoV spike (S) [9]) |
| --- | --- | --- | --- | --- | --- | --- | --- | --- | --- | --- |
| NRCoV2-S2A4 VHH-Fc (Fc fusion, bivalent VHH-Fc) QVQLVQSGGGLVQAGGSLRLSCAVSGSPFRSNVMEWYRQAPGKQRELVASISTGGSRTYTDSVKGRFTISRDNAKNEAFLQMNSLKPEDTAVYYCHAAARDSHGIYLLDTWGQGTQVTVSS | no binding (tested: 13 nM) | no binding (tested: 13 nM) | 6860 | 100 | – | – | – | – | – | – |
| NRCoV2-MRed18 VHH-Fc (Fc fusion, bivalent VHH-Fc) EVQLVESGGGLVQPGGSLRLSCAASTTVFGRNAMGWYRQAPGKERELVATVSDGGTPNYADSVKGRFTISRDNAKNTIYLQMNSLEPEDTAVYYCNYYNYYYGRNFWGQGTQVTVSS | no binding (tested: 13 nM) | no binding (tested: 13 nM) | 10200 | 900 | – | – | – | – | – | – |
| NRCoV2-S2F3 VHH-Fc (Fc fusion, bivalent VHH-Fc) EVQLVQSGGGLVQAGGSLRLSCATSVRILSVPAMGWYRQAPGKEREMVAVITSGGSTNYADSVKGRFTISRDNAKNTVYLQMNSLKLEDTAVYQCNLRDILSQPFWGQGTQVTVSS | no binding (tested: 13 nM) | no binding (tested: 13 nM) | 6950 | 2700 | – | – | – | – | – | – |
| NRCoV2-S2G4 VHH-Fc (Fc fusion, bivalent VHH-Fc) QVQLVQSGGGLVQAGGSLTLSCAPSGSTFSGYATNWYRQAPGKQRELVATISSDGDKNYADSVKGRFTISRDNAKNTVYLQMNSLKPEDTAVYYCNKHWWTGDWWGQGTQVTVSS | no binding (tested: 13 nM) | no binding (tested: 13 nM) | 6900 | 300 | – | – | – | – | – | – |
| NRCoV2-MRed03 VHH-Fc (Fc fusion, bivalent) EVQLVESGGGLVQPGGSLRLSCAAIGFTLDYYAIGWFRQAPGKEREGVSCISSSDGSTYYADSVKGRFTISRDNAKNTVYLQMNSLKPEDTAVYYCATDAFATCDSWYAQIAQYDFRGQGTQVTVSS | – | – | – | – | 200 | 480 | 700 | – | – | – |
| NRCoV2-15 VHH-Fc (Fc fusion, bivalent VHH-Fc) EVQLVSSGGGLVEAGGSLRLSCIASGSTSGRNTMGWFRQAPGKQREWVAIVSTSGATNYAGSVKGRFTLSRDNAKNAVYLQMNNLKPEDTAVYYCYAAYGGGGDYWGQGTQVTVSS | – | no binding (tested: 13 nM) | 21100 | 800 | – | – | – | no binding (tested: 13 nM) | no binding (tested: 13 nM) | – |
| NRCoV2-SR13 VHH-Fc (Fc fusion, bivalent) EVQLVESGGGLVTTGGSLRLSCATSGSRFGSKHMAWYRQAPGKQRDLVAAISSGGSTHYGSSVKGRFTISRDNAKSTVYLQMNSLNPEDTAVFYCNMGGWDYRSNTYIPGSRSDYWGQGTQVTVSS | – | – | – | – | 430 | 430 | 230 | – | – | – |
| NRCoV2-SR03 VHH-Fc (Fc fusion, bivalent VHH-Fc) AVQLVDSGGGLVQAGGSLRLSCAASGSIFSNNHMGWYRQAPGKQRELVAAISSGGKTNYADFAKGRFTISRDNAKNMVYLQMNSLKPEDTAVYYCNRGGWEYRSSYYIMGPHWGQGTQVTVSS | – | – | 19900 | 7100 | – | – | – | no binding (tested: 13 nM) | no binding (tested: 13 nM) | – |
| NRCoV2-SR03 VHH-Fc (Fc fusion, bivalent) AVQLVDSGGGLVQAGGSLRLSCAASGSIFSNNHMGWYRQAPGKQRELVAAISSGGKTNYADFAKGRFTISRDNAKNMVYLQMNSLKPEDTAVYYCNRGGWEYRSSYYIMGPHWGQGTQVTVSS | – | – | – | – | 160 | 200 | 170 | – | – | – |
| NRCoV2-S2G3 VHH-Fc (Fc fusion, bivalent VHH-Fc) QVQLVQSGGGSVQAGGSLRLSCAASGSTFGIFLMGWRRQAPGKQRELVAHITSGGATNYADSVKGRFTISRDNAKNTVYLQMNSLEPEDTAVYYCYTTKRDDASVYWGQGTQVTVSS | no binding (tested: 13 nM) | no binding (tested: 13 nM) | 7530 | 300 | – | – | – | – | – | – |
| NRCoV2-17 VHH-Fc (Fc fusion, bivalent VHH-Fc) EVQLQQSGGGLVQTGGSLRLSCAAAGSPFSQLAMSWYRQISGKERAWVASISPTGNRSYSKIAKGRFTISRDNAKNTVTLQMTSLKPEDTAAYICQAANVNGGDYWGQGTQVTVSS | – | no binding (tested: 13 nM) | 19000 | 400 | – | – | – | no binding (tested: 13 nM) | no binding (tested: 13 nM) | – |
| NRCoV2-21 VHH-Fc (Fc fusion, bivalent VHH-Fc) EVQLVESGGGLVQPGGSLRLSCATSGFTLDYYAIGWFRQAPGKEREWVSCISSGGSTFYVDSVKGRFTISRDNAKDTVYLQMSSLKPDDTAVYYCAADHRGRSLRFGCSSSTTDYLYWGQGTQVTVSS | – | – | – | – | – | – | – | no binding (tested: 13 nM) | – | – |
| NRCoV2-S2B3 VHH-Fc (Fc fusion, bivalent VHH-Fc) QVQLVDSGGGLVQAGGSLRLSCAASASTFGDSAMGYYRQAPGKQRELVATISTGSNTNYADSVKGRFTISRDDAKNTVYLQMNSLKPEDTAVYYCNYRSIYYGQNFWGQGTQVTVSS | – | – | 6660 | 6500 | – | – | – | no binding (tested: 13 nM) | – | – |
| NRCoV2-MRed07 VHH-Fc (Fc fusion, bivalent) EVQLVESGGGLVQPGGSLTLSCAASGSIGPFNTMGWYRQAPGNQREPAAIITRGGVTNYADSVKGRFTISRDNAKNAVYLQMDSLKPDDTAVYYCYANYGWAIPYWGNGTQVTVSS | – | – | – | – | 1200 | 1500 | 800 | – | – | – |
| NRCoV2-MRed19 VHH-Fc (Fc fusion, bivalent VHH-Fc) EVQLVESGGGLVQPGGSLRLSCAASTIIFKGQTMGWFRQAPGNERELVATMTTSGSANYADSVKGRFTISRDNEKTVTLQMNSLKPEDTALYYCYMHSVYYGIDYWGKGTQVTVSS | no binding (tested: 13 nM) | no binding (tested: 13 nM) | 5480 | 1300 | – | – | – | – | – | – |
| NRCoV2-MRed22 VHH-Fc (Fc fusion, bivalent VHH-Fc) EVQLVESGGGLVQPGGSLRLSCAASGSVFASNAMGWYRQAPGKQRELVATISSRGSTNYADSVKGRFTISRDNAKNTVYLQMNSLGPEDTAVYYCNAREFTGFDYWGQGTQVTVSS | no binding (tested: 13 nM) | no binding (tested: 13 nM) | 5320 | 200 | – | – | – | – | – | no binding (tested: 13 nM) |
| NRCoV2-MRed20 VHH-Fc (Fc fusion, bivalent VHH-Fc) EVQLVESGGGSVQAGGSLRLSCAASGLSFSSYDMGWFRQAPGKEREFVAAIRESGSGTYYADSVKGRFTISRDNAKNTVYLQVSSLKPEDTAVYTCAAKPPFYGSGTYSTPRAYLYWGQGTQVTVSS | no binding (tested: 13 nM) | no binding (tested: 13 nM) | 6660 | 6500 | – | – | – | – | – | – |
| NRCoV2-SR01 VHH-Fc (Fc fusion, bivalent) EVQLVQSGGGSVQAGGSLRLSCVASGFTFDNYAIGWFRQAPGKEREGVSCISGNGGVTIYADSVKGRFTISRDNAKNLVYLQMNSLKPEDTAVYYCAATGIRSTWSVYGCSRLAGPYDYWGQGTQVTVSS | – | – | – | – | 130 | 230 | 190 | – | – | – |
| NRCoV2-SR04 VHH-Fc (Fc fusion, bivalent VHH-Fc) QVQLVESGGGLVQAGGSLRLSCAASGRTFSSHTVGWYRQAPGKQRDLVAAISMGGNTNYADYADSVKGRFTISRDNAKNTLYLQMNSLKPEDTAVYYCNTAALVGNRLLPMATITWGQGTQVTVSS | – | – | 10100 | 8200 | – | – | – | no binding (tested: 13 nM) | no binding (tested: 13 nM) | – |
| NRCoV2-SR04 VHH-Fc (Fc fusion, bivalent) QVQLVESGGGLVQAGGSLRLSCAASGRTFSSHTVGWYRQAPGKQRDLVAAISMGGNTNYADYADSVKGRFTISRDNAKNTLYLQMNSLKPEDTAVYYCNTAALVGNRLLPMATITWGQGTQVTVSS | – | – | – | – | 200 | 250 | 170 | – | – | – |
| NRCoV2-MRed06 VHH-Fc (Fc fusion, bivalent) EVQLVESGGGLVQAGGSLRLSCAASGFTLAYYAIGWFRQAPGKEREGVSCISSSDGSAHYADSVKGRFTISRDNAKNTVSLQMNSLKPEDTAVYYCATDSFSSCSDYESGMDFWGKGTQVTVSS | – | – | – | – | 400 | 590 | 400 | – | – | – |
| NRCoV2-SR16 VHH-Fc (Fc fusion, bivalent) QVQLVQSAGGLVQAGGSLRLSCVVSGTTFSRYHMGWHRQAPGKQRDFVAGISTSGAVTYADSAKGRFTISRDNAKNTVYLEMNSLKLEDTALYYCNTGGWDYRSSTFIMGLNWGQGTQVTVSS | – | – | – | – | 590 | 2700 | 360 | – | – | – |
| NRCoV2-SR02 VHH-Fc (Fc fusion, bivalent) EVQLVDSGGGLVQAGGSLRLSCTASEFTLNYYSIGWFRQSPGKEREGVSCIRYSGGGIDYADSVKGRFTISRDNAKNTVYLTMNSLKPEDTAVYYCAADRLYSRACPTAGGRNYWGQGTQVTVSS | – | – | – | – | 110 | 130 | 340 | – | – | – |

From patent US20240270826A1 (NATIONAL RESEARCH COUNCIL OF CANADA, published 2024)
